From article PMC4080824, “Altered native stability is the dominant basis for susceptibility of α1-antitrypsin mutants to polymerization” (Biochemical Journal, 2014)
Changes are numbered by the printed parent chain. Names may count otherwise.

B1: α1-antitrypsin C232S E162C/V170C (162–170) (natural protein)
chain: DPQGDAAQKTDTSHHDQDHPTFNKITPNLAEFAFSLYRQLAHQSNSTNIFFSPVSIATAFAMLSLGTKADTHDEILEGLNFNLTEIPEAQIHEGFQELLRTLNQPDSQLQLTTGNGLFLSEGLKLVDKFLEDVKKLYHSEAFTVNFGDTEEAKKQINDYVCKGTQGKICDLVKELDRDTVFALVNYIFFKGKWERPFEVKDTEEEDFHVDQVTTVKVPMMKRLGMFNIQHSKKLSSWVLLMKYLGNATAIFFLPDEGKLQHLENELTHDIITKFLENEDRRSASLHLPKLSITGTYDLKSVLGQLGITKVFSNGADLSGVTEEAPLKLSKAVHKAVLTIDEKGTEAAGAMFLEAIPMSIPPEVKFNKPFVFLMIEQNTKSPLFMGKVVNPTQK
modifications: disulfide bond between C162 and C170 (predominantly in the disulfide-bonded form, >90%); reduced where treated with 100 mM 2-mercaptoethanol
notes: α1-antitrypsin, wild-type (M) ORF on the C232S background; Same construct as m3 with the stated changes; source: E. coli SG13009/pREP4 (pQE-30) or BL21(DE3) (pQE-81L), purified; not shown: His6, N-terminal, kept
B2: α1-antitrypsin C232S S283C/P361C (283–361) (natural protein)
chain: B1 chain with C161E, C169V, S282C, P360C
modifications: disulfide bond between C283 and C361 (predominantly in the disulfide-bonded form, >90%); reduced where treated with 100 mM 2-mercaptoethanol
notes: as for B1
B3: α1-antitrypsin C232S K168C/F189C (168–189) (natural protein)
chain: B1 chain with C161E, K167C, C169V, F188C
modifications: disulfide bond between C168 and C189 (predominantly in the disulfide-bonded form, >90%); reduced where treated with 100 mM 2-mercaptoethanol
notes: as for B1
B4: α1-antitrypsin C232S S292C/T339C (292–339) (natural protein)
chain: B1 chain with C161E, C169V, S291C, T338C
modifications: disulfide bond between C292 and C339 (predominantly in the disulfide-bonded form, >90%); reduced where treated with 100 mM 2-mercaptoethanol
notes: as for B1

Columns and labels:
[1] = molecular target: bovine α-chymotrypsin (bovine); assay: stoichiometry of inhibition by titration of enzyme activity; inhibitor incubated with 0.5 μM bovine α-chymotrypsin for 30 min at room temperature (21°C) in 20 mM Tris/HCl, 0.1 M NaCl, 0.1% PEG 8000, 10 mM CaCl2 pH 8.0; residual activity on N-succinyl-Ala-Ala-Pro-Phe-p-nitroanilide
[2] = molecular target: bovine α-chymotrypsin (bovine); assay: stoichiometry of inhibition by titration of enzyme activity; as the stoichiometry of inhibition assay, protein treated with 100 mM 2-mercaptoethanol (reduced)
[3] = molecular target: the molecule itself; assay: FRET or BRET; mutant series; 0.2 mg/ml protein, 4 μM Atto550–Ni-NTA and 4 μM Atto647N–Ni-NTA on the His6 tag, 10 mM NaH2PO4/Na2HPO4, 100 mM NaCl pH 7.4; heat-induced polymerization at 55°C; time to half-maximal signal
[4] = molecular target: the molecule itself; assay: FRET or BRET; mutant series; 0.2 mg/ml protein, 4 μM Atto550–Ni-NTA and 4 μM Atto647N–Ni-NTA on the His6 tag, 10 mM NaH2PO4/Na2HPO4, 100 mM NaCl pH 7.4; heat-induced polymerization at 65°C; time to half-maximal signal
[5] = molecular target: the molecule itself; assay: FRET or BRET; mutant series; 0.2 mg/ml protein, 4 μM Atto550–Ni-NTA and 4 μM Atto647N–Ni-NTA on the His6 tag, 10 mM NaH2PO4/Na2HPO4, 100 mM NaCl pH 7.4; heat-induced polymerization at 60°C; time to half-maximal signal

| Molecule | SI (stoichiometry of inhibition) [1] | SI (stoichiometry of inhibition) [2] | polymerization half-time (t0.5) [3] | polymerization half-time (t0.5) [4] | polymerization half-time (t0.5) [5] |
| --- | --- | --- | --- | --- | --- |
| α1-antitrypsin C232S (AT_(C232S)) (from UniProt P01009 26-418) (natural protein) | 1.1 |  |  |  |  |
| α1-antitrypsin C232S K335A (from UniProt P01009 26-418) (natural protein) | 1 |  |  |  |  |
| α1-antitrypsin C232S S292C/T339C (292–339) (from UniProt P01009 26-418) (natural protein) | 1 | 1 |  |  |  |
| α1-antitrypsin C232S S283C/P361C (283–361) (from UniProt P01009 26-418) (natural protein) | 1 | 1 |  |  |  |
| α1-antitrypsin C232S E162C/V170C (162–170) (from UniProt P01009 26-418) (natural protein) | 1 | 1 |  |  |  |
| α1-antitrypsin C232S K191C/T339C (191–339) (from UniProt P01009 26-418) (natural protein) |  | 1 |  |  |  |
| α1-antitrypsin C232S K331V (from UniProt P01009 26-418) (natural protein) | 3.9 |  |  |  |  |
| α1-antitrypsin C232S K168C/F189C (168–189) (from UniProt P01009 26-418) (natural protein) | 8.5 |  |  |  |  |
| B1 |  |  | 3930 s | 226 s | 941 s |
| B2 |  |  | 8970 s | 37 s | 1430 s |
| B3 |  |  | 21900 s | 1010 s | 8870 s |
| B4 |  |  | 2290 s | 51 s | 307 s |
